Measurements published in patent publication US20260240907A1 (published 2026).

T1: KRAS G12V peptide on HLA-A*02:01 (human)
T1 peptide: KLVVVGAVGV

T2: KRAS G12D peptide on HLA-A*11:01 (human)
T2 peptide: VVVGADGVGK


Target: T1, KRAS G12V peptide on HLA-A*02:01
Assay: multimer staining

| binding result | Binder |
| --- | --- |
| recognises | TCR12 (TCR, V domains shown) Valpha: GEDVEQSLFLSVREGDSSVINCTYTDSSSTYLYWYKQEPGAGLQLLTYIFSNMDMKQDQRLTVLLNKKDKHLSLRIADTQTGDSAIYFCAEIRDTGKLIFGQGTTLQVKP Vbeta: DVKVTQSSRYLVKRTGEKVFLECVQDMDHENMFWYRQDPGLGLRLIYFSYDVKMKEKGDIPEGYSVSREKKERFSLILESASTNQTSMYLCASSRQGTDTQYFGPGTRLTVL |
| recognises | TCR8 (TCR, V domains shown) Valpha: GEDVEQSLFLSVREGDSSVINCTYTDSSSTYLYWYKQEPGAGLQLLTYIFSNMDMKQDQRLTVLLNKKDKHLSLRIADTQTGDSAIYFCAESIRDTDKLIFGTGTRLQVFP Vbeta: GAVVSQHPSRVICKSGTSVKIECRSLDFQATTMFWYRQFPKKSLMLMATSNEGSKATYEQGVEKDKFLINHASLTLSTLTVTSAHPEDSSFYICSARDTSGTTRNEQFFGPGTRLTVL |

Continued, binder first:

| Binder | binding result |
| --- | --- |
| TCR14 (TCR, V domains shown) Valpha: AQKITQTQPGMFVQEKEAVTLDCTYDTSDPSYGLFWYKQPSSGEMIFLIYQGSYDQQNATEGRYSLNFQKARKSANLVISASQLGDSAMYFCAMRGMDSSYKLIFGSGTRLLVRP Vbeta: DVKVTQSSRYLVKRTGEKVFLECVQDMDHENMFWYRQDPGLGLRLIYFSYDVKMKEKGDIPEGYSVSREKKERFSLILESASTNQTSMYLCATRTGQQAGSKDTDTQYFGPGTRLTVL | recognises |
| TCR10 (TCR, V domains shown) Valpha: GEDVEQSLFLSVREGDSSVINCTYTDSSSTYLYWYKQEPGAGLQLLTYIFSNMDMKQDQRLTVLLNKKDKHLSLRIADTQTGDSAIYFCAEMKDTDKLIFGTGTRLQVFP Vbeta: DGGITQSPKYLFRKEGQNVTLSCEQNLNHDAMYWYRQDPGQGLRLIYYSQIVNDFQKGDIAEGYSVSREKKESFPLTVTSAQKNPTAFYLCASTQVGTGELFFGEGSRLTVL | recognises |
| TCR13 (TCR, V domains shown) Valpha: GEDVEQSLFLSVREGDSSVINCTYTDSSSTYLYWYKQEPGAGLQLLTYIFSNMDMKQDQRLTVLLNKKDKHLSLRIADTQTGDSAIYFCAERRDTDKLIFGTGTRLQVFP Vbeta: GAVVSQHPSWVICKSGTSVKIECRSLDFQATTMFWYRQFPKQSLMLMATSNEGSKATYEQGVEKDKFLINHASLTLSTLTVTSAHPEDSSFYICSAWGANTGELFFGEGSRLTVL | recognises |
| TCR11 (TCR, V domains shown) Valpha: GEDVEQSLFLSVREGDSSVINCTYTDSSSTYLYWYKQEPGAGLQLLTYIFSNMDMKQDQRLTVLLNKKDKHLSLRIADTQTGDSAIYFCAEMKDTDKLIFGTGTRLQVFP Vbeta: not shown | recognises |
| TCR9 (TCR, V domains shown) Valpha: GEDVEQSLFLSVREGDSSVINCTYTDSSSTYLYWYKQEPGAGLQLLTYIFSNMDMKQDQRLTVLLNKKDKHLSLRIADTQTGDSAIYFCAEIPGDSSYKLIFGSGTRLLVRP Vbeta: not shown | recognises |
| TCR15 (TCR, V domains shown) Valpha: GEDVEQSLFLSVREGDSSVINCTYTDSSSTYLYWYKQEPGAGLQLLTYIFSNMDMKQDQRLTVLLNKKDKHLSLRIADTQTGDSAIYFCADFLRDTDKLIFGTGTRLQVFP Vbeta: GAVVSQHPSWVICKSGTSVKIECRSLDFQATTMFWYRQFPKQSLMLMATSNEGSKATYEQGVEKDKFLINHASLTLSTLTVTSAHPEDSSFYICSARDRTSTDTQYFGPGTRLTVL | recognises |
| TCR16 (TCR, V domains shown) Valpha: DQQVKQNSPSLSVQEGRISILNCDYTNSMFDYFLWYKKYPAEGPTFLISISSIKDKNEDGRFTVFLNKSAKHLSLHIVPSQPGDSAVYFCAVNRDDKIIFGKGTRLHILP Vbeta: DTGVSQDPRHKITKRGQNVTFRCDPISEHNRLYWYRQTLGQGPEFLTYFQNEAQLEKSRLLSDRFSAERPKGSFSTLEIQRTEQGDSAMYLCASSSELAGGINEQFFGPGTRLTVL | recognises |

Target: T2, KRAS G12D peptide on HLA-A*11:01
Assay: multimer staining

| binding result | Binder |
| --- | --- |
| recognises | TCR4 (TCR, V domains shown) Valpha: GEDVEQSLFLSVREGDSSVINCTYTDSSSTYLYWYKQEPGAGLQLLTYIFSNMDMKQDQRLTVLLNKKDKHLSLRIADTQTGDSAIYFCAERRGNMLTFGGGTRLMVKP Vbeta: NAGVTQTPKFRILKIGQSMTLQCTQDMNHNYMYWYRQDPGMGLKLIYYSVGAGITDKGEVPNGYNVSRSTTEDFPLRLELAAPSQTSVYFCASSRTSGLTDTQYFGPGTRLTVL |
| recognises | TCR6 (TCR, V domains shown) Valpha: AQTVTQSQPEMSVQEAETVTLSCTYDTSESDYYLFWYKQPPSRQMILVIRQEAYKQQNATENRFSVNFQKAAKSFSLKISDSQLGDAAMYFCAYTNSGNTPLVFGKGTRLSVIA Vbeta: DAGVIQSPRHEVTEMGQEVTLRCKPISGHDYLFWYRQTMMRGLELLIYFNNNVPIDDSGMPEDRFSAKMPNASFSTLKIQPSEPRDSAVYFCASKPGPRSWREGAFFGQGTRLTVV |
| recognises | TCR1 (TCR, V domains shown) Valpha: AQKVTQAQTEISVVEKEDVTLDCVYETRDTTYYLFWYKQPPSGELVFLIRRNSFDEQNEISGRYSWNFQKSTSSFNFTITASQVVDSAVYFCALSEVTGAGSYQLTFGKGTKLSVIP Vbeta: DGGITQSPKYLFRKEGQNVTLSCEQNLNHDAMYWYRQDPGQGLRLIYYSQIVNDFQKGDIAEGYSVSREKKESFPLTVTSAQKNPTAFYLCASSIGAGQHNSPLHFGNGTRLTVT |

Second part, the binder before the results:

| Binder | binding result |
| --- | --- |
| TCR3 (TCR, V domains shown) Valpha: AQKITQTQPGMFVQEKEAVTLDCTYDTSDPSYGLFWYKQPSSGEMIFLIYQGSYDQQNATEGRYSLNFQKARKSANLVISASQLGDSAMYFCVGNEKLTFGTGTRLTIIP Vbeta: KAGVTQTPRYLIKTRGQQVTLSCSPISGHRSVSWYQQTPGQGLQFLFEYFSETQRNKGNFPGRFSGRQFSNSRSEMNVSTLELGDSALYLCASSLATGGYNSPLHFGNGTRLTVT | recognises |
| TCR5 (TCR, V domains shown) Valpha: ILNVEQSPQSLHVQEGDSTNFTCSFPSSNFYALHWYRWETAKSPEALFVMTLNGDEKKKGRISATLNTKEGYSYLYIKGSQPEDSATYLCASADGANNLFFGTGTRLTVIP Vbeta: SAVISQKPSRDICQRGTSLTIQCQVDSQVTMMFWYRQQPRQSLTLIATANQGSEATYESGFVIDKFPISRPNLTFSTLTVSNMSPEDSSIYLCSVGPSGTGPGYTFGSGTRLTVV | recognises |
| TCR2 (TCR, V domains shown) Valpha: AQKVTQAQTEISVVEKEDVTLDCVYETRDTTYYLFWYKQPPSGELVFLIRRNSFDEQNEISGRYSWNFQKSTSSFNFTITASQVVDSAVYFCALSEGSNYKLTFGKGTLLTVNP Vbeta: EAGVAQSPRYKIIEKRQSVAFWCNPISGHATLYWYQQILGQGPKLLIQFQNNGVVDDSQLPKDRFSAERLKGVDSTLKIQPAKLEDSAVYLCASSSTGGTGETQYFGPGTRLLVL | recognises |
